Test results: IntAct's records for PubMed 22575647

B1: Nuclear receptor subfamily 0 group B member 2 (Homo sapiens), Q15466 (parent)
chain: MSTSQPGACPCQGAASRPAILYALLSSSLKAVPRPRSRCLCRQHRPVQLCAPHRTCREALDVLAKTVAFLRNLPSFWQLPPQDQRRLLQGCWGPLFLLGLAQDAVTFEVAEAPVPSILKKILLEEPSSSGGSGQLPDRPQPSLAAVQWLQCCLESFWSLELSPKEYACLKGTILFNPDVPGLQAASHIGHLQQEAHWVLCEVLEPWCPAAQGRLTRVLLTASTLKSIPTSLLGDLFFRPIIGDVDIAGLLGDMLLLR

Variants of: B1
Settings: with mdm2_human MDM2, Q00987
Chain of mdm2_human MDM2, Q00987 (Q00987 whole entry, looked up): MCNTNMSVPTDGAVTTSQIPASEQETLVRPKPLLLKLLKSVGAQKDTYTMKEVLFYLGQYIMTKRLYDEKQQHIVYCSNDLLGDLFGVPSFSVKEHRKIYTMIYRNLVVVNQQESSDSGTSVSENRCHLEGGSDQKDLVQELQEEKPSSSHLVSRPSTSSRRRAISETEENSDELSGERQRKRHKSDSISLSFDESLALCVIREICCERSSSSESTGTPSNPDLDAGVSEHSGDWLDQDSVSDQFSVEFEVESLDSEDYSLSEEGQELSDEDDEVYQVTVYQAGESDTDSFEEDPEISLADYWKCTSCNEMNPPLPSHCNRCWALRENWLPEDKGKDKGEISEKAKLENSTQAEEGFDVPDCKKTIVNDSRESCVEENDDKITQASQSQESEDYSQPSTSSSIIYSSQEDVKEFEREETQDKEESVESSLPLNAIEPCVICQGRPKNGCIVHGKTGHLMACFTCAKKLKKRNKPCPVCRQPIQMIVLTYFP

| Variant | effect of a mutation on the interaction |
| --- | --- |
| MSTSQPGACPCQGAASRPAILYALLSSSLKAVPRPRSRCLCRQHRPVQLCAPHRTCREALDVLAKTVAFLRNLPSFWQLPPQDQRRLLQGCWGPLFLLGLAQDAVTFEVAEAPVPSILKKILLEEPSSSGGSGQLPDRPQPSLAAVQWLQCCLESFWSLELSPKEYACLNGTILFNPDVPGLQAASHIGHLQQEAHWVLCEVLEPWCPAAQGRLTRVLLTASTLKSIPTSLLGDLFFRPIIGDVDIAGLLGDMLLLR [K170N] | increasing interaction |

Variants of: B1
Settings: with mdm2_human MDM2, Q00987
Remark: another data set of the same source

| Variant | effect of a mutation on the interaction |
| --- | --- |
| MSTSQPGACPCQGAASRPAILYALLSSSLKAVPRPRSRCLCRQHRPVQLCAPHRTCREALDVLAKTVAFLRNLPSFWQLPPQDQRRLLQGCWGPLFLLGLAQDAVTFEVAEAPVPSILKKILLEEPSSSGGSGQLPDRPQPSLAAVQWLQCCLESFWSLELSPKEYACLRGTILFNPDVPGLQAASHIGHLQQEAHWVLCEVLEPWCPAAQGRLTRVLLTASTLKSIPTSLLGDLFFRPIIGDVDIAGLLGDMLLLR [K170R] | disrupting interaction |
